The record followed here is patent US6300131, “Telomerase-associated proteins” (Johns Hopkins University, dated 2001).

The experiment addresses ribosomal associated protein L22 (human, UniProt P35268). Nature of the experiment: co-immunoprecipitation from 293 cell lysate, Western blot.

Method: Multi-tissue northern blots (Clontech) were hybridized with a 0.7 kb BamHI-EcoRI hStau cDNA probe according to the manufacturer's procedures. In particular, blots were hybridized at 68° C. in ExpressHyb solution (Clontech) for 1 hour with shaking. Blots were washed several times in 2×SSC, 0.05% SDS at room temperature, with a final wash in 0.1×SSC and 0.1% SDS at 60° C. for about 40 minutes. The blots then were re-probed with an actin probe without stripping the hStau signal. Signal intensity was quantified on a BAS 1500 PhosphorImager system (Fuji Medical System, Inc, Stamford, Conn.).

B1: human staufen (hStau) polypeptide (other)
chain: MKLGKKPMYKPVDPYSRMRSTYNYNMRGGAYPPRYFYPFPVPPLLYQVELSVGGQQFNGKGKTRQAAKHDAAAKALRILQNEPLPERLEVNGRESEEENLNKSEISQVFEIALKRNLPVNFEVARESGPPHMKNFVTKVSVGEFVGEGEGKSKKISKKNAAIAVLEELKKLPPLPAVERVKPRIKKKTKPIVKPQTSPEYGQGINPISRLAQIQQAKKEKEPEYTLLTERGLPRRREFVMQVKVGNHTAEGTGTNKKVAKRNAAENMLEILGFKVPQAQPTKPALKSEEKTPIKKPGDGRKVTFFEPGSGDENGTSNKEDEFRMPYLSHQQLPAGILPMVPEVAQAVGVSQGHHTKDFTRAAPNPAKATVTAMIARELLYGGTSPTAETILKNNISSGHVPHGPLTRPSEQLDYLSRVQGFQVEYKDFPKNNKNEFVSLINCSSQPPLISHGIGKDVESCHDMAALNILKLLSELDQQSTEMPRTGNGPMSVCGRC
As to B1, the binding result is recorded as “no binding”.
